To fix the notation:
B1: biotinylated nanobody SpE8 (AviTag-His9) (VHH)
VHH: QVQLVESGGGFVRAGDSLRLSCAASGRAFSTYAMGWFRQAPGKEREFVAGITLGSRITQYADSVKGRFTISRDNARQTMYLQMNNLQPEDTADYYCAARGQGSPPLRNRWSADDYNYWGQGLQVTVSS
notes: VHH SpE8 from an immunised llama; also called bSpE8; OROV Gc Spike Nb E8 BAP H9; not shown: AviTag, C-terminal, kept
B2: nanobody SpE8, His8-tagged (VHH)
VHH: B1 VHH
notes: as the VHH of m21; also called OROV Gc Spike Nb E8 H8; not shown: His8, C-terminal, kept
B3: nanobody NpE2, His8-tagged (VHH)
VHH: QVQLVESGGGLVQAGDSLRLSCVASGFTPNPAVSWVRQAPGKDLEWVSSIYHGDITSYATSVKGRFTISRDNAKNTVYLQMNSLKPEDSAIYYCTKGDSRGQGTQVTVSS
notes: as the VHH of m12; also called OROV Np Nb E2 H8; not shown: His8, C-terminal, kept
B4: biotinylated nanobody NpE2 (AviTag-His9) (VHH)
VHH: B3 VHH
notes: VHH NpE2 from an immunised llama; also called bNpE2; OROV Np Nb E2 BAP H9; not shown: AviTag, C-terminal, kept
B5: nanobody NpE3, His8-tagged (VHH)
VHH: QVQLVESGGGLVRPGGSLRLSCAASGFTFSNAYMTWIRQAPGKDLEWVSSIYYGDMTSYATSVKGRFTISRDNAKNTLYLQMNNLKPEDSAIYYCTKGDERGQGTQVTVSS
notes: as the VHH of m13; also called OROV Np Nb E3 H8; not shown: His8, C-terminal, kept
B6: nanobody NpD2, His8-tagged (VHH)
VHH: QVQLVESGGGLAQPGGSLRLSCAASGFTLDYYSIGWFRQAPGKEREGVSCISSGGSTYYADSVKGRFAISSDNAKNTVYLQMNSLKPEDTAVYYCAADIMSCPGKYSAVADYWGQGTQVIVDS
notes: as the VHH of m11; also called OROV Np Nb D2 H8; not shown: His8, C-terminal, kept
B7: biotinylated nanobody NpD2 (AviTag-His9) (VHH)
VHH: B6 VHH
notes: VHH NpD2 from an immunised llama; also called bNpD2; OROV Np Nb D2 BAP H9; not shown: AviTag, C-terminal, kept
B8: nanobody NpG1, His8-tagged (VHH)
VHH: QVQLVESGGGLVQPGDSLRLSCAASGRTFTDYPMAWFRQAPGKEREFVTAINWSGGATYYADSVKGRFTISRDNTRNTVFLQMNSLKPEDTAVYYCAGGSGRLSYNMDKEYIYWGQGIQVTVSS
notes: as the VHH of m15; also called OROV Np Nb G1 H8; not shown: His8, C-terminal, kept
B9: biotinylated nanobody NpG1 (AviTag-His9) (VHH)
VHH: B8 VHH
notes: VHH NpG1 from an immunised llama; also called bNpG1; OROV Np Nb G1 BAP H9; not shown: AviTag, C-terminal, kept
B10: biotinylated nanobody SpA7 (AviTag-His9) (VHH)
VHH: QVQLVESGGGSVQAGGSLRLSCAASGRTFSAYVMGWFRQAPGKEREFVAAIRRSYGSTYYADSVKGRFTISTDNAKNTVTLQMNSLKPEDTAIYYCAAIRQGGGWGSSAVDYWGQGTQVTVAS
notes: VHH A7 against Gc spike from an immunised llama; also called OROV Gc Spike Nb A7 BAP H9; not shown: AviTag, C-terminal, kept
B11: biotinylated nanobody SpC6 (AviTag-His9) (VHH)
VHH: QVQLVESGGGSVQAGGSLRLSCAASGRTFSRYAMGWLRQAPGKEREFVAAITWSGGNTYYADSVKGRFTITRDDAKNTVYLQINNPKPEDTAVYYCAAGTQTGRIRDKGPSYWGQGTQVTVSS
notes: VHH SpC6 from an immunised llama; also called bSpC6; OROV Gc Spike Nb C6 BAP H9; not shown: AviTag, C-terminal, kept
B12: nanobody SpC6, His8-tagged (VHH)
VHH: B11 VHH
notes: as the VHH of m19; also called OROV Gc Spike Nb C6 H8; not shown: His8, C-terminal, kept
B13: biotinylated nanobody NpA2 (AviTag-His9) (VHH)
VHH: QVQLVESGGGLVQPGGSVRLSCAASGGIFSFNAMAWYRQAPGKQRDIVALIANDGNTNYADSVKGRFTISRDNAKNTVYLQMNSLQPEDTAVYYCSALRRGAQDWGQGTQVTVSS
notes: VHH NpA2 from an immunised llama; also called bNpA2; OROV Np Nb A2 BAP H9; not shown: AviTag, C-terminal, kept
B14: nanobody NpA2, His8-tagged (VHH)
VHH: B13 VHH
notes: as the VHH of m10; also called OROV Np Nb A2 H8; not shown: His8, C-terminal, kept
B15: OROV nucleoprotein (N), recombinant, strain BeAn19991 (natural protein, Oropouche virus strain BeAn19991)
chain: MSEFIFNDVPQRTTSTFDPEAAYVAFEARYGQVLNAGVVRVFFLNQKKAKDVLRKTSRPMVDLTFGGVQFAMVNNHFPQFQSNPVPDNGLTLHRLSGYLARWAFTQMRSPIKQAEFRATVVVPLAEVKGCTWNDGDAMYLGFAAGAEMFLQTFTFFPLVIEMHRVLKDGMDVNFMKKVLRQRYGQKTAEQWMREEIVAVRAAFEAVGTLAWARTGFSPAARDFLRQFGIDI
B16: OROV nucleoprotein (N) of strain TRVL, native, in virus stock (natural protein)
chain: B15 chain
notes: N protein of Oropouche virus strain TRVL (Anderson et al, 1961); also called OROV TRVL
B17: OROV nucleoprotein (N) of the 2023-4 epidemic isolate AM0088, native (natural protein)
chain: B15 chain
notes: also called OROV AM0088 N
B18: OROV nucleoprotein (N) in serum of patients with acute OROV infection (natural protein)
chain: B15 chain
notes: N protein of the Oropouche virus infecting the patients; also called OROV N protein
B19: OROV nucleoprotein (N) of strain BeAn19991, native, in virus stocks and infected cells (natural protein, Oropouche virus strain BeAn19991)
chain: B15 chain
notes: N protein of Oropouche virus strain BeAn19991, GenBank AJE24680.1, as made by the virus; also called OROV BeAn19991
B20: nanobody SpC7, His8-tagged (VHH)
VHH: QVQLVESGGGLVQAGGSLRLSCAASGRTFSPNAMGWFRQAPGKEREFVSAISWSGGSTTYADSVKGRFTISRDNAKNTVSLQMNSLKPEDTAVYYCAADLEGMVVADRIWGQGTQVTVSS
notes: as the VHH of m20; also called OROV Gc Spike Nb C7 H8; not shown: His8, C-terminal, kept
B21: biotinylated nanobody NpF2 (AviTag-His9) (VHH)
VHH: QVQLVESGGGAVQAGGSLRLSCAASGRTFSSFPMGWFRQAPGKEREFIAAINWSGASKYYADSVKGRFAISRDNAKNTVYLQMNSLTPEDTAVYSCAAGSGRYGYTFSKEYTYWGQGTQVIVAS
notes: VHH NpF2 from an immunised llama; also called bNpF2; OROV Np Nb F2 BAP H9; not shown: AviTag, C-terminal, kept
B22: nanobody SpB6, His8-tagged (VHH)
VHH: QVQLVESGGGLVQPGDSLRLSCAASGRTFSNYAMGWFRQAPGKEREKVAALSRSGTSTYYLDRVKGRFTISRDNTKNMVYLQMNSLEPEDTAVYYCAADPLFQNAAYHYSGQGTQVTVST
notes: as the VHH of m18; also called OROV Gc Spike Nb B6 H8; not shown: His8, C-terminal, kept
B23: biotinylated nanobody SpB6 (AviTag-His9) (VHH)
VHH: B22 VHH
notes: VHH SpB6 from an immunised llama; also called bSpB6; OROV Gc Spike Nb B6 BAP H9; not shown: AviTag, C-terminal, kept
B24: biotinylated nanobody SpA9 (AviTag-His9) (VHH)
VHH: QVQLVESGGGLVQPGGSLTLSCAASGFTFSTLAMAWFRQAPGKERESVAVINRSGGIVNYADSVKGRFTITRDNAKNMVYLQMNSLKPEDTAVYYCAARTGYAYVRVSDYDSWGQGTQVTVSS
notes: VHH A9 against Gc spike from an immunised llama; also called OROV Gc Spike Nb A9 BAP H9; not shown: AviTag, C-terminal, kept

For experiment [1], the target named is T1, OROV Gc spike region (residues 482-894 of the M polyprotein), recombinant, strain BeAn19991 (Oropouche virus strain BeAn19991, UniProt A0A0B5CLT0).
T1 construct: Gc spike region (head and stalk domains) of the M polyprotein of Oropouche virus strain BeAn19991, GenBank AJE24679.1, residues 482-894; also called Gc spike domain
Description: ELISA; […], biotinylated nanobody 2 µg/mL, […], room temperature. To be noted: both partners purified.

Experiment [2] has as its target T1, OROV Gc spike region (residues 482-894 …). Put plainly: ELISA. The settings on record: both partners purified.
In experiment [3] the target is B15. Description: ELISA. The settings on record: both partners purified.
In experiment [4] the target is B15. Description: BLI; streptavidin biosensors loaded with biotinylated nanobodies, 1 µM OROV N with or without 25 µM competitor nanobody, 300 s association, 30 °C, PBS-T, Octet Red. The settings on record: both partners purified.
Experiment [5] concerns the target B15. Put plainly: ELISA; […], biotinylated nanobody 2 µg/mL, […], room temperature. The settings on record: both partners purified.
The target of experiment [6] is T2, nanobody-Fc fusion FcNpD2, HRP-conjugated (llama).
T2 construct: as the VHH of m11; also called OROV FcNpD2; not shown: Fc (human IgG1 hinge and Fc domains 2 and 3), C-terminal, kept
Put plainly: ELISA.

For experiment [7], the target named is T3, biotinylated nanobody-Fc fusion bFcNpD2 (C-terminal AviTag) (llama).
T3 construct: as the VHH of m11; also called OROV FcNpD2 BAP; not shown: Fc (human IgG1 hinge and Fc domains 2 and 3), C-terminal, kept; AviTag, C-terminal, kept
Description: ELISA.

For experiment [8], the target named is T4, OROV glycoprotein Gc of strain BeAn19991, native, in virus stocks and infected cells (Oropouche virus strain BeAn19991, UniProt A0A0B5CLT0).
T4 construct: On virus particles Gc stands with Gn; also called Gc spike; OROV BeAn19991
Description: ELISA. The settings on record: one partner purified.

Experiment [9] has as its target T5, OROV glycoprotein Gc of strain TRVL, native, in virus stock (Oropouche virus strain TRVL (stand-in: …, UniProt A0A0B5CLT0, strain)).
T5 construct: also called Gc spike; OROV TRVL
Description: ELISA. To be noted: one partner purified.

On to B1, for which the binding result in experiment [1] is “binds”. Turning to B2, in [2], the binding result is listed as “binds”.

In the case of B3, the binding result in [3] is reported as “binds”. Turning to B4, the binding result in [4] is “binds”. Regarding B5, the binding result in experiment [3] is “binds”. For B6, in experiment [3], the binding result is on record as “binds”. For B7, in experiment [5], the binding result is listed as “binds”. Turning to B8, in experiment [3], the binding result is reported as “binds”. Take B9: the binding result in [4] is listed as “binds”. As for B10, the binding result in experiment [1] was “binds”. For B11, in experiment [1], the binding result is “binds”.

As for B12, the binding result in experiment [2] is recorded as “binds”. As for B13, in [5], the binding result was “binds”. As for B14, the binding result in experiment [3] was “binds”. In the case of B15, the binding result in experiment [6] (both partners purified) and in experiment [7] (both partners purified) was “binds” throughout. As for B16, the binding result in experiment [6] (one partner purified) and in experiment [7] (one partner purified) was “binds” in each case.

On to B17, for which the binding result in experiment [6] (one partner purified) and in [7] (one partner purified) was “binds” in each case.

As to B18, the binding result in experiment [6] (one partner purified) and in experiment [7] (one partner purified) was “binds” in each case. On to B19, for which the binding result in [6] (one partner purified) and in experiment [7] (one partner purified) was “binds” throughout. B20: in [2], the binding result was “binds”. B21: the binding result in experiment [4] is on record as “binds”.

Turning to B22, the binding result in experiment [8], in experiment [9] and in experiment [2] was “binds” throughout.

As for B23, the binding result in experiment [1] is “binds”. Still for that read-out and setting: the same measure for B24: “binds”.

The values are drawn from publication PMC12423313, “Protein-based tools for the detection and characterisation of Oropouche virus infection” (EMBO Molecular Medicine, 2025).
